4 molecules from patent US20200247894A1 (Regeneron, published 2020) can be followed below.

Where only a bound is given, the exact number is not on record here.

T1: Macaca fascicularis IL2Rγ extracellular domain expressed with a C-terminal myc-myc-hexahistidine tag (Macaca fascicularis)
T1 construct: whole entry is the tagged construct; also called mfIL-2Rg-MMH
T1 chain: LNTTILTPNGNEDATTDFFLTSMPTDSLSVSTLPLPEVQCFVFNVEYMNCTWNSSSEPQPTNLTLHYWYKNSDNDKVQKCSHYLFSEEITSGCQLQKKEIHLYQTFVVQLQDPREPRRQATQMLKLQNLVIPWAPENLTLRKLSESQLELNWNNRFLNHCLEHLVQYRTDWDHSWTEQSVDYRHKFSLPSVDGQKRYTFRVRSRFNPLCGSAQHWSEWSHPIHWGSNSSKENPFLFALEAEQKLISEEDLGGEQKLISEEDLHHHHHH

T2: Mouse IL2Rγ extracellular domain expressed with a C-terminal myc-myc-hexahistidine tag (mouse)
T2 construct: whole entry is the tagged construct; also called mIL-2Rg-MMH
T2 chain: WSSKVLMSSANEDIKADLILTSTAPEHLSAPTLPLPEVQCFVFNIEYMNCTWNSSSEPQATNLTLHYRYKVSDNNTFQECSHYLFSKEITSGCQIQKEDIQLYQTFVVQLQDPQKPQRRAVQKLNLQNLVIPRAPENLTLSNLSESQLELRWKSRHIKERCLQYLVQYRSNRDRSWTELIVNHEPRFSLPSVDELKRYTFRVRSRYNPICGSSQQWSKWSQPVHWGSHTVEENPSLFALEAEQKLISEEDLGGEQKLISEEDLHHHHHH

T3: Rat IL2Rγ extracellular domain expressed with a C-terminal myc-myc-hexahistidine tag (rat)
T3 construct: whole entry is the tagged construct; also called rIL-2Rg-MMH; rat IL-2Rg-MMH
T3 chain: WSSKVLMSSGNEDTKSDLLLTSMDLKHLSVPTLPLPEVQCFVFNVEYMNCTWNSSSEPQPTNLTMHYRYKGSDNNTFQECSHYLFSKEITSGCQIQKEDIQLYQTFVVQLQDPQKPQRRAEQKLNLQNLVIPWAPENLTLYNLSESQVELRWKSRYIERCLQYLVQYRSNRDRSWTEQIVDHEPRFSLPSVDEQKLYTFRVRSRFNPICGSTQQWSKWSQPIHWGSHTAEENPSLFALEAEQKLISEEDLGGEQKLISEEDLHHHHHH

T4: Human IL2Rγ extracellular domain expressed with a C-terminal mouse IgG2a Fc tag (human)
T4 construct: whole entry is the Fc-fused construct; also called hIL-2Rg-mFc
T4 chain: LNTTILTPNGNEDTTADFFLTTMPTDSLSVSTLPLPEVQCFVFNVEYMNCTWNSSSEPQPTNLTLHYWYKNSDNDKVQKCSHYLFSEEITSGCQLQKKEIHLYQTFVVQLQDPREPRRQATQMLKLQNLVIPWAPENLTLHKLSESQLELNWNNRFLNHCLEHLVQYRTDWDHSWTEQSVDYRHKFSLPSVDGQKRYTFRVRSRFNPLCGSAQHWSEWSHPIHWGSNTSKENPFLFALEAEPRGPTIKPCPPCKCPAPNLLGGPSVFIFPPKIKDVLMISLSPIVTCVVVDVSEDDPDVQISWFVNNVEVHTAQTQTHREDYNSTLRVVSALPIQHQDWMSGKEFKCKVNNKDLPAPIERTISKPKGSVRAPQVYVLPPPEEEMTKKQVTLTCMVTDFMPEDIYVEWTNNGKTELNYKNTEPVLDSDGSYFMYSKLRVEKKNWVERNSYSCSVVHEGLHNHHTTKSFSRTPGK

B1: H4H12863P (antibody, human IgG4 S228P, kappa, V domains shown)
VH: QVQLVESGGGVVQPGRSLRLSCTASGFTFRSYDMYWVRQAPGKGLEWVSVITYDGNNKYYADSVKGRFTISRDNSKNTLFLQMSSLRPEDTAVYYCAKRGLIWVGESFDYWGQGTLVTVSS
VL: DIQMTQSPSTLSASVGDRVTITCRASQSINSWLAWYQQKPGKAPNLLIYKASSLESGVPSRFSGSGSGTEFTLTISSLQPDDFATYYCQQYKSYSWTFGQGTKVEIKR
notes: fully human anti-IL2Rgamma mAb, human IgG4 Fc
B2: H4H12922P2 (antibody, human IgG4 S228P, kappa, V domains shown)
VH: QVQLVESGGGVVKPGGSLRLSCAASGFTFSNSGIHWVRQAPGKGLEWVALISYAGSNKYYADSVKGRFTISRDNSKNTLSLQMNSLRAEDTAVYYCAKEVWTGTYDSFDMWGRGTMVTVSS
VL: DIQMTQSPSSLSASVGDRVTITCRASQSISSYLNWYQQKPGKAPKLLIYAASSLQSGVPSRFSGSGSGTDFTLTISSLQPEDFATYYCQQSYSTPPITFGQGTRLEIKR
notes: fully human anti-IL2Rgamma mAb, human IgG4 Fc; also called REGN7256
B3: H4H12874P (antibody, human IgG4 S228P, kappa, V domains shown)
VH: QVQLVESGGGVVQPGRSLRLSCAASGFNFRNFGMHWVRQAPGKGLEWVAGILYDGSSKYYADSVKDRFTISRDNSKNTLFLQMNSLRAEDTAMYYCAKEEDTAMVPFDSWGPGTLVTVSS
VL: DIQLTQSPSFLSASVGDRVTITCWASQGISSYLAWYQQKPGKAPTLLIYAASTLQSGVPSRFSGSGSGTEFTLTISSLQPEDFASYYCQQLKSYPLTFGGGTKVEIKR
notes: as for B1
B4: H4H12889P (antibody, human IgG4 S228P, kappa, V domains shown)
VH: EVQLVESGGGLVQPGGSLRLSCAASGFIFSSYEMHWVRQAPGKGLEWISYISSSGTTIYYADSVKGRFTISRDNAKNSLYLHMNSLRAEDTAVYYCTRARITGTFDVFDIWGQGTMVTVSS
VL: DIQMTQSPSSLSASVGDRVTITCRASQSISSYLNWYQQKPGKAPKLLIFAASNLQSGVPSRFSGSRSGTDFTLTISSLQPEDFATYYCQQNYNIPYTFGQGTKLEIKR
notes: fully human anti-IL2Rgamma mAb, human IgG4 Fc; also called REGN7257

The target in one assay is T1, Macaca fascicularis IL2Rγ extracellular …. Put plainly: SPR Biacore 4000, anti-hFc-captured mAb, 37 C. Summed up:
(§1)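 First, a mouse anti-human Fc antibody was amine-coupled to the chip; test mAbs were then captured and IL2Rγ reagents bound in HBS-ET, pH 7.4. Dissociation was tracked for 8-10 minutes before 1:1 fitting of the sensorgrams.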
Consider B1, for which the “100 nM Ag Bound” value is 63 RU, the Kd amounted to 5.51 nM, the koff worked out at 0.00147 s⁻¹ and the kon amounted to 266000 M⁻¹ s⁻¹. This molecule returned a t1/2 of 0.133 h.
Take B2: the “100 nM Ag Bound” value was determined as 44 RU, the Kd turned out to be 4.18 nM, the koff was found to be 0.00129 s⁻¹ and the kon was found to be 308000 M⁻¹ s⁻¹. The same molecule returned a t1/2 of 0.15 h.
For B3, in that order: 43 RU, 12.4 nM, 0.00116 s⁻¹, 93300 M⁻¹ s⁻¹ and 0.167 h.
For B4, in that order: 29 RU, 4.63 nM, 0.00171 s⁻¹, 369000 M⁻¹ s⁻¹ and 0.117 h.

The target in another assay is T2, Mouse IL2Rγ extracellular domain …. Put plainly: SPR Biacore 4000, anti-hFc-captured mAb, 37 C. Summed up:
as §1
Take B1: the “100 nM Ag Bound” value was 0 RU.
On the same count and under the same terms, next, B2: 2 RU; B3: 0 RU.
Same read-out and setting: next, B4: 0 RU.

The target of another assay is T3, Rat IL2Rγ extracellular domain …. Put plainly: SPR Biacore 4000, anti-hFc-captured mAb, 37 C. In a few lines:
as §1
B1: the “100 nM Ag Bound” value came to 0 RU.
The same measure, in the same setting: next, B2: 5 RU; B3: 3 RU; B4: 2 RU.

The target in another assay is T4, Human IL2Rγ extracellular domain …. Put plainly: SPR Biacore 4000, anti-hFc-captured mAb, 37 C. Summed up: as §1
For the molecule B1, the “50 nM Ag Bound” value was 93 RU and the kon came to 537000 M⁻¹ s⁻¹.
In the case of B2, the “50 nM Ag Bound” value was found to be 47 RU and the kon was 223000 M⁻¹ s⁻¹.
For B3 the same measures were 14 RU and 33000 M⁻¹ s⁻¹.
As to B4, the “50 nM Ag Bound” value came to 39 RU and the kon was 238000 M⁻¹ s⁻¹.

The next assay shares this target. Put plainly: SPR Biacore 4000, anti-hFc-captured mAb, 37 C; computed with kd fixed at 1.00E-05. As to the method: Equilibrium dissociation constants (KD values) for IL-2Rγ binding to purified anti-IL2Rγ monoclonal antibodies were determined using a Biacore 4000 instrument equipped with a real-time surface plasmon resonance biosensor. All binding studies were performed in 10 mM HEPES, 150 mM NaCl, 3 mM EDTA, and 0.05% v/v Surfactant Tween-20, pH 7.4 (HBS-ET) running buffer at 25° C. and 37° C. The Biacore sensor surface was first derivatized by amine coupling with a monoclonal mouse anti-human Fc antibody (GE, # BR-1008-39) to capture anti-IL2Rγ monoclonal antibodies.
The dissociation of monoclonal antibody bound IL2Rγ reagents were monitored for 8-10 minutes in HBS-ET running buffer. Kinetic association (kₐ) and dissociation (kd) rate constants were determined by fitting the real-time sensorgrams to a 1:1 binding model using Scrubber 2.0c curve fitting software. Binding dissociation equilibrium constants (KD) and dissociative half-lives (t_{1/2}) were calculated from the kinetic rate constants as: […]
For B1, the Kd was no more than 0.0186 nM and the t1/2 was no less than 19.2 h.
B2 registered a Kd of no more than 0.0448 nM and a t1/2 of no less than 19.2 h.
For B3, in that order: no more than 0.303 nM and no less than 19.2 h.
B4 had a Kd of no more than 0.042 nM and a t1/2 of no less than 19.2 h.

The next assay shares this target. Put plainly: SPR Biacore 4000, anti-hFc-captured mAb, 37 C; no dissociation observed, kd manually fixed at 1.00E-05.
B1 gave a koff of no more than 1e-05 s⁻¹.
The same measure, in the same setting: the same measure for B2: no more than 1e-05 s⁻¹; for B3: no more than 1e-05 s⁻¹.
The molecule B4 registered a koff of no more than 1e-05 s⁻¹.

The target of another assay is T2, Mouse IL2Rγ extracellular domain …. Put plainly: SPR Biacore 4000, anti-hFc-captured mAb, 25 C. Summed up:
as §1
For the molecule B1, the “100 nM Ag Bound” value came to 2 RU and the binding result is recorded as “no binding (tested: 100 nM)”.
As to B2, the “100 nM Ag Bound” value was determined as 2 RU and the binding result is listed as “no binding (tested: 100 nM)”.
For B3, in that order: 1 RU and “no binding (tested: 100 nM)”.
In the case of B4, the “100 nM Ag Bound” value stood at 1 RU and the binding result is listed as “no binding (tested: 100 nM)”.

For another assay, the target named is T3, Rat IL2Rγ extracellular domain …. Put plainly: SPR Biacore 4000, anti-hFc-captured mAb, 25 C. In a few lines:
as §1
With B1, the “100 nM Ag Bound” value amounted to 1 RU and the binding result is given as “no binding (tested: 100 nM)”.
For B2 the same measures were 3 RU and “no binding (tested: 100 nM)”.
In the case of B3, the “100 nM Ag Bound” value was determined as 1 RU and the binding result is listed as “no binding (tested: 100 nM)”.
Regarding B4, the “100 nM Ag Bound” value came to 1 RU and the binding result is given as “no binding (tested: 100 nM)”.

Another assay deals with T4, Human IL2Rγ extracellular domain …. Put plainly: SPR Biacore 4000, anti-hFc-captured mAb, 25 C. In a few lines:
as §1
As for B1, the “50 nM Ag Bound” value turned out to be 115 RU, binding was characterised by a dissociation constant (Kd) of 0.0853 nM, the koff is 3.41e-05 s⁻¹ and the kon was 399000 M⁻¹ s⁻¹. Moreover, the t1/2 is 5.65 h.
As for B2, the “50 nM Ag Bound” value was 82 RU, the Kd was found to be 0.0564 nM, the koff was 1.75e-05 s⁻¹ and the kon turned out to be 310000 M⁻¹ s⁻¹. Further, the t1/2 was determined as 11 h.
For B3 the same measures were 15 RU, 4.18 nM, 8.35e-05 s⁻¹, 20000 M⁻¹ s⁻¹ and 2.3 h.
For the molecule B4, the “50 nM Ag Bound” value came to 69 RU, binding was characterised by a dissociation constant (Kd) of 0.0447 nM, the koff turned out to be 1.55e-05 s⁻¹ and the kon amounted to 347000 M⁻¹ s⁻¹. Further, the t1/2 was 12.4 h.
